Experimental data from patent US20210002363A1 (PHANES THERAPEUTICS, published 2021).
Residue numbers refer to the chain shown, from its start.

Assays:
[1] = target: T1, Recombinant extracellular domain of human FOLR1 (Novoprotein, Cat#: C784) (human, UniProt P15328 25-233, limits assumed); assay: ELISA on immobilized FOLR1 extracellular domain; O.D. 450 nm
T1 construct: Bought reagent; also called recombinant FOLR1; immobilized FOLR1 extracellular domain

[2] = target: T1, Recombinant extracellular domain of …; assay: as above; remark: listed apart in the source
[3] = target: T2, full-length human FOLR1 on stably transfected CHO cells (human, UniProt P15328 25-234); assay: FACS on CHO cells stably expressing full-length human FOLR1; PE goat anti-mouse IgG; MFI
T2 construct: also called CHO cells stably expressing human FOLR1
T2 sequence (P15328 25-234 limits assumed): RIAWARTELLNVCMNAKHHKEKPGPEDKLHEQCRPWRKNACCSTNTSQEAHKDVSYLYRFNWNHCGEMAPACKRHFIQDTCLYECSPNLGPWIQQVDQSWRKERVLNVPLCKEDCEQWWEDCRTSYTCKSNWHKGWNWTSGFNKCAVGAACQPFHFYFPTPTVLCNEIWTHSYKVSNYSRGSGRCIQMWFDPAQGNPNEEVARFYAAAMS
Protocol: CHO cells stably transfected with full-length human FOLR1 were transferred to a 96-well plate at 200,000 cells/well, washed once with FACS buffer (1×PBS, pH6.8+2% FBS) and incubated with purified mouse anti-FOLR1 mAbs from hybridoma supernatants at various concentrations for 15 minutes on ice. Cells were then centrifuged at 1,000 rpm for 5 minutes and washed with FACS buffer three times. The cells were incubated with PE-conjugated goat anti-mouse IgG polyclonal antibodies and incubated on ice for another 15 minutes. Cells were then washed with FACS buffer three times and then resuspended in FACS buffer containing 0.1 μg/ml PI (propidium iodide) for live/dead cell gating. Cells were then run through the FACS Caliber instrument and the data were analyzed by the Flowjo software. MFI, mean fluorescence intensity.

[4] = target: T1, Recombinant extracellular domain of …; assay: ELISA on plate-coated recombinant human FOLR1 extracellular domain; anti-human IgG-HRP; O.D. 450 nm
Protocol: The Purified chimeric mAbs were tested in an ELISA assay for their ability to bind to immobilized human FOLR1. Recombinant extracellular domain of human FOLR1 (Novoprotein, Cat#: C784) in carbonate coating buffer was coated on a 96-well plate at room temperature for 1 hour. The plate is blocked by 5% BSA in TBST for 1 hour at room temperature. In each well of an individual plate, mAbs at various concentrations were incubated for 1 hour at room temperature. The plate was washed and the binding to FOLR1 was detected by anti-human IgG conjugated to horseradish peroxidase (hIgG-HRP) (ThermoFisher Scientific, Cat#: H10007) with incubation for 1 hour at room temperature. Then after washing, the ELISA was developed using One-step Detection Solution (ThermoFisher Scientific, Cat#: 34028) and measured as the absorbance at 450 nm.

[5] = target: T1, Recombinant extracellular domain of …; assay: SPR (Biacore 8k), mAb captured on protein A chip, recombinant FOLR1 as analyte, 1:1 model
Protocol: The interaction of the chimeric anti-FOLR1 mAbs and FOLR1 was measured by Surface Plasmon Resonance (SPR) (Biacore 8k, GE Healthcare). Briefly, an anti-FOLR1 mAb was immobilized to a protein A sensor chip (GE Healthcare, Cat#: 29-1275-56) in HBS-P buffer (0.01 M HEPES pH 7.4, 0.15 M NaCl, 0.05% v/v Surfactant P20) with an injection flow rate at […]. The recombinant FOLR1 (Novoprotein, Cat#: C784) at variant concentrations was loaded with the flow rate of 30 μL/min in HBS-P buffer. Following antigen loading, the surface was regenerated with 10 mM glycine-HCl (pH 1.5). Sensor grams were fit with a 1:1 binding model using Biacore 8k evaluation software (GE Healthcare).

[6] = target: T3, FOLR1 on SK-OV-3 cells (ATCC HTB-77) (Homo sapiens (Human), UniProt P15328 25-234); assay: FACS on SK-OV-3 cells; Alexa Fluor 488 F(ab')2 goat anti-human IgG Fc; MFI
T3 construct: Endogenous FOLR1 of the cell line; also called cells that are known to express FOLR1
T3 sequence (P15328 25-234 limits assumed): as above
Protocol: To assess the binding of the chimeric anti-FOLR1 mAbs to cells that are known to express FOLR1, SK-OV-3 (ATCC® HTB-77™) cells were plated at 80,000 cells per well on a 96-well non-binding U-bottom plate (Greiner Bio-One, Cat#: 650901). In some experiments, 90,000 cells per well were used. The cells were incubated in 50 μL FACS buffer (HBSS with 0.1% BSA and 0.05% sodium azide) containing mAbs at different concentrations on ice for 15 minutes. After wash, cells were incubated in 50 μL FACS buffer containing 3.5 μg/mL F(ab′)2-Goat anti-Human IgG Fc conjugated to Alexa Fluor® 488 (Invitrogen, Cat#: H10120) on ice for 15 minutes in dark and washed again. Cells were analyzed using an Attune NxT flow cytometer. MFI, mean fluorescence intensity.

[7] = target: T3, FOLR1 on SK-OV-3 cells (ATCC HTB-77); assay: FACS on SK-OV-3 cells; MFI

T1 sequence (P15328 25-233 limits assumed): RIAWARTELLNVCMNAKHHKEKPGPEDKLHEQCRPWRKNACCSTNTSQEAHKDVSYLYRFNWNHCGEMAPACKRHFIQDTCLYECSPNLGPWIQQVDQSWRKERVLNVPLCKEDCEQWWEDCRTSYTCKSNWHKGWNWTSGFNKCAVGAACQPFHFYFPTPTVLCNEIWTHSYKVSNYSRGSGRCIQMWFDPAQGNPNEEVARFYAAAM

B1: F5-H2L1 (antibody, V domains shown)
VH: EVQLVESGGGLVQPGGSLRLSCAVSGFTFSNYGMSWVRQAPGKGLEWVATISSGGSYTYYPDSVKGRFTISRDNSKNTLYLQMNSLRAEDTAVYYCSTQGSSGYVGYWGQGTLVTVSS
VL: DIQMTQSPSSVSASVGDRVTITCKASQDITNFIGWYQHKPGKAPKLLISYTSILESGVPSRFSGSGSGRDYTLTISSLQPEDFATYYCLQYYNLWTFGGGTKVEIK
notes: also called humanized F5 mAb H2L1
- EC50 (read off the curve) [1]: ~300 pM

B2: F5-H3L2 (antibody, V domains shown)
VH: B1 VH with N84S
VL: B1 VL with R69T
notes: also called humanized F5 mAb H3L2
- binding result [2]: binds

B3: F5-H3L1 (antibody, V domains shown)
VH: B1 VH with N84S
VL: B1 VL
notes: also called humanized F5 mAb H3L1
- binding result [2]: binds

B4: mouse anti-FOLR1 mAb F17 (purified from hybridoma supernatant) (antibody, V domains shown)
VH: DVQLVESGGGLVQPGGSRKLSCAASGFTFSDFGMHWIRQAPERGLEWVAYMSYTPGTFHYADTVKDRFFISRDNAKNTLFLQMTSLRSDDTAMYYCARVHVGTVDYWGQGTSVTVSS
VL: DVVLTQSPATLSVTPGDSVSLSCRASQNINNNLHWFQQKSHESPRLLIKYASQSISGIPSRFSGSGSGTDFTLSINNVETEDFGIYFCQQSNSWPALTFGTGTKVELK
notes: Mouse antibody from hybridoma, purified on Protein A, detected with anti-mouse IgG; also called mAb clone F17
- EC50 (read off the curve) [3]: ~0.3 µg/mL

B5: chimeric anti-FOLR1 mAb F7 (antibody, V domains shown)
VH: EFQLQQSGPELVKPGASVKISCKASGYSFTDYNMNWVKQSNGKSLEWIGVIDPNYGTTNYNQKFVGKATLTVDQSSITAYMQLNSLTAEDSAVYFCAIKGYGNPAAYWGQGTLVTVSA
VL: DIQMTQSPSSLSASLGGKVTITCKASQDINKYLAWYQHEPGKGPRLLIRYTSILESGIPSRFSGSGSGRDYSFSISNLEPEDIATYYCLQYYNLWTFGGGTKLEIK
notes: also called Chimeric mAb F7
- EC50 (read off the curve) [4]: ~100 pM
- Kd [5]: 2330 pM
- EC50 (read off the curve) [6]: ~200 pM

B6: mouse anti-FOLR1 mAb F7 (purified from hybridoma supernatant) (antibody, V domains shown)
VH: B5 VH
VL: B5 VL
notes: Mouse antibody from hybridoma, purified on Protein A, detected with anti-mouse IgG; also called mAb clone F7
- EC50 (read off the curve) [3]: ~0.1 µg/mL

B7: mouse anti-FOLR1 mAb F8 (purified from hybridoma supernatant) (antibody, V domains shown)
VH: EVMLVESGGGLVKPGGSLKLSCVASGFTLSTYAMSWVRQTPEKRLEWVATISGGGGDTYHLDTVKGRFTISRDNAKNTLYLQMSSLRSEDTALYYCARQSHYGSSYYFDNWGQGTTLTVSS
VL: DIQMTQSPASLSASVGEIVTIICRVSENIDSYLAWYQQKQGKSPQLLVYAATNLADGVPSRFSGSGSGSQYSLKINSLQSEDVARYYCQHYYTTPPTFGGGTKLDIK
notes: Mouse antibody from hybridoma, purified on Protein A, detected with anti-mouse IgG; also called mAb clone F8
- EC50 (read off the curve) [3]: ~0.5 µg/mL

B8: chimeric anti-FOLR1 mAb F8 (antibody, V domains shown)
VH: B7 VH
VL: B7 VL
notes: also called Chimeric mAb F8
- Kd [5]: 721 pM

B9: F20-H3L1 (antibody, V domains shown)
VH: QVQLVQSGAEVKKPGSSVKVSCKASGYTFASYYLYWVRQAPGQGLEWIGEINPRSGGTNFNEKFKSKATVTVDKSTNTAYMELSSLRSEDTAVYYCSRSGRLRGFYTMDYWGQGTLVTVSS
VL: DIVMTQSPDSLAVSLGERATINCKAGENVGSYVSWYQQKPGQPPKLLIYGASNRYTGVPDRFSGSGSATDFTLTISSLQAEDVAVYYCGQTYRFLTFGQGTKVEIK
notes: also called humanized F20 mAb H3L1
- EC50 (read off the curve) [7]: 1000 to 2000 pM

B10: F20-H1L1 (antibody, V domains shown)
VH: B9 VH with K67R, N77S
VL: B9 VL
notes: also called humanized F20 mAb H1L1
- EC50 (read off the curve) [7]: 1000 to 2000 pM

B11: F20-H3L2 (antibody, V domains shown)
VH: B9 VH
VL: B9 VL with P43S
notes: also called humanized F20 mAb H3L2
- EC50 (read off the curve) [7]: 1000 to 2000 pM

B12: chimeric anti-FOLR1 mAb F19 (antibody, V domains shown)
VH: EVKLDETGGGLVQPGRPMKLSCVASGFTFSDYWMNWVRQSPDKGLEWVAQIGNKFHNYETYYSDSVKGRFTISRDDSKSSVYLQMNSLRVEDTGIYYCTKLGRGYYVMDYWGQGTSVTVSS
VL: DIQMTQTTSSLSASLGDRVTLNCRASQDITNHLNWFQQKPDGTFQLLIYYTSRLHSGVPSRFSGSGSGTDYSLTISNLEQEDFATYFCQQDSQHPWTFGGGTKLEIK
notes: also called Chimeric mAb F19
- Kd [5]: 11800 pM

B13: chimeric anti-FOLR1 mAb F20 (antibody, V domains shown)
VH: QVQLQQSGAELVKPGASVQLSCKASGYTFASYYLYWVKQRPGQGLEWIGEINPRSGGTNFNEKFKSKATVTVDKSSSTAYMQLSSLTSEDSAVYYCSRSGRLRGFYTMDYWGQGTSVTVSS
VL: NIVMTQSPKSMSVSVGERVTLSCKAGENVGSYVSWYQQKPEQSPELLIYGASNRYTGVPDRFTGSGSATDFTLTISSVQAEDLADYYCGQTYRFLTFGAGTKLELK
notes: also called Chimeric mAb F20
- Kd [5]: 1000 pM

B14: chimeric anti-FOLR1 mAb F4 (antibody, V domains shown)
VH: EVQLVESGGGLVKPGGSLKLSCAASGFTFSDYGMHWVRQAPEKGLEWVAFISSGSNTIYYADIVKGRFAISRDNAKNTLFLQMASLRSEDTALYYCARLAEWDVAYWGQGTLVTVSA
VL: DIVLTQSPATLSVTPGDRISLSCRASQNINNNLHWYQQKSHESPRLLIKFASQSISGIPSRFSGSGSGTDFTLNINGVETEDFGMYFCQQIYSWPQLTFGAGTRLELK
notes: also called Chimeric mAb F4
- EC50 (read off the curve) [4]: ~200 pM
- Kd [5]: 547 pM
- EC50 (read off the curve) [6]: ~500 pM

B15: mouse anti-FOLR1 mAb F4 (purified from hybridoma supernatant) (antibody, V domains shown)
VH: B14 VH
VL: B14 VL
notes: Mouse antibody from hybridoma, purified on Protein A, detected with anti-mouse IgG; also called mAb clone F4
- EC50 (read off the curve) [3]: ~1 µg/mL
